According to IntAct's records for PubMed 11238466:

B1: CARD domain-containing protein E10 (Equine herpesvirus 2 (strain 86/87)), Q66677 (parent)
chain: MAEKYPLQAGDPCVTLTEEDIWDVERLCLEELRVLLVSHLKSHKHLDHLRAKKILSREDAEEVSSRATSRSRAGLLVDMCQDHPRGFQCLKESCKNEVGQEHLVDLLERAFEKHCGDKLTQKWWESGADGRNPRRPPGSEDNSGYTALLPTNPSGGGPSIGSGHSRPRGRDDSGGIGGGVYPFSHGGARVVGGGWGGWGESGGAGRGGSLLSGGHGGHPPHGGPGGGGRDYYGGGGSGYYESIPEPANFPNSGGGGRGGGVRYDAGGDGRLGGLPPDPQEVDDPSLSVQGRGGPAPDPPSPPLRTRRFFCC
partner: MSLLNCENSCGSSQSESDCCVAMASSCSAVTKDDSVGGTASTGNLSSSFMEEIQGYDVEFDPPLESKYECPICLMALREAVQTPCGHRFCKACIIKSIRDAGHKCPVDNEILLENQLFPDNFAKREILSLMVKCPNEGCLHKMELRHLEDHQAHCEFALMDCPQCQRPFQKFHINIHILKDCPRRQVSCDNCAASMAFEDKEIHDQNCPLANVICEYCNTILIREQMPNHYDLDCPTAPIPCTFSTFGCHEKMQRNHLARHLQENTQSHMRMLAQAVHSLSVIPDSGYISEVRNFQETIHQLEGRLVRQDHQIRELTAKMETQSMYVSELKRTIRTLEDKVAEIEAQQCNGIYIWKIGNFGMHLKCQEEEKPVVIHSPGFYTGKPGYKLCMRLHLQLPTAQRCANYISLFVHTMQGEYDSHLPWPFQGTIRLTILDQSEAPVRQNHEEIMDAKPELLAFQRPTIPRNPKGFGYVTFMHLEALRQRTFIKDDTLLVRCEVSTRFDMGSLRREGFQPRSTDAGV
B2: CARD domain-containing protein E10 (Equine herpesvirus 2 (strain 86/87)), Q66677 (parent)
chain: B1 chain
partner: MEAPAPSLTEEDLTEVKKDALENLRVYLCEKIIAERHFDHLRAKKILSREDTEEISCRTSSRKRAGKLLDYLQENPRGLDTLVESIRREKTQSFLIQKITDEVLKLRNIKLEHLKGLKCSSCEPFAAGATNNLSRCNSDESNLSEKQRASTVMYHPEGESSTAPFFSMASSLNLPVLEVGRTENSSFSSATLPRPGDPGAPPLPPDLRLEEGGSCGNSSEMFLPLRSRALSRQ

Variants of: B1
Conditions: with traf6_human TRAF6, Q9Y4K3

Q: With MAEKYPLQAGDPCVTLTEEDIWDVERLCLEELRVLLVSHLKSHKHLDHLRAKKILSREDAEEVSSRATSRSRAGLLVDMCQDHPRGFQCLKESCKNEVGQEHLVDLLERAFEKHCGDKLTQKWWESGADGRNPRRPPGSEDNSGYTALLPTNPSGGGPSIGSGHSRPRGRDDSGGIGGGVYPFSHGGARVVGGGWGGWGESGGAGRGGSLLSGGHGGHPPHGGPGGGGRDYYGGGGSGYYESIPEPANFPNSGGGGRGGGVRYDAGGDGRLGGLPPDGQAVDDPSLSVQGRGGPAPDPPSPPLRTRRFFCC [P278G;E280A] as the variant, how does the “effect of a mutation on the interaction” value read?
A: decreasing interaction

Variants of: B2
Conditions: with bcl10_mouse Bcl10, Q9Z0H7

Q: Which “effect of a mutation on the interaction” value does the source give for MAEKYPLQAGDPCVTLTEEDIWDVERLCLEELRVLLVSHLKSHKHLDHRRAKKILSREDAEEVSSRATSRSRAGLLVDMCQDHPRGFQCLKESCKNEVGQEHLVDLLERAFEKHCGDKLTQKWWESGADGRNPRRPPGSEDNSGYTALLPTNPSGGGPSIGSGHSRPRGRDDSGGIGGGVYPFSHGGARVVGGGWGGWGESGGAGRGGSLLSGGHGGHPPHGGPGGGGRDYYGGGGSGYYESIPEPANFPNSGGGGRGGGVRYDAGGDGRLGGLPPDPQEVDDPSLSVQGRGGPAPDPPSPPLRTRRFFCC [L49R] here?
A: decreasing interaction
